Experimental findings from patent US20140255415A1 (Novartis, published 2014) are described below.

In experiment [1] the target is human LINGO-1 expressed on CHO-K1 cells (CHO-K1-hLINGO-1) (human) (UniProt Q96FE5). In words: FACS saturation binding on CHO-K1-hLINGO-1 cells, IgG4, with 50% human CSF against control.
The target is the same in experiment [2]. In words: apparent KD, FACS saturation binding on CHO-K1-hLINGO-1 cells, IgG4 pre-incubated in FACS buffer.
For experiment [3] the target is unchanged. Nature of the experiment: apparent KD, FACS saturation binding on CHO-K1-hLINGO-1 cells, IgG4, without 50% human cerebro-spinal fluid (control).
Experiment [4] shares this target. Nature of the experiment: ratio of apparent KDs, FACS saturation binding on CHO-K1-hLINGO-1 cells, IgG4, without against with 50% human CSF.
Experiment [5] shares this target. In words: apparent KD, FACS saturation binding on CHO-K1-hLINGO-1 cells, IgG4 format.
For experiment [6], the target named is T1, cynomolgus monkey LINGO-1 expressed on CHO-K1 cells (CHO-K1-cmLINGO-1) (cynomolgus monkey, UniProt Q9N008 34-614).
T1 construct: range 34-614; also called Cynomolgus LINGO-1; not shown: 2 amino acid residue linker
T1 sequence (looked up): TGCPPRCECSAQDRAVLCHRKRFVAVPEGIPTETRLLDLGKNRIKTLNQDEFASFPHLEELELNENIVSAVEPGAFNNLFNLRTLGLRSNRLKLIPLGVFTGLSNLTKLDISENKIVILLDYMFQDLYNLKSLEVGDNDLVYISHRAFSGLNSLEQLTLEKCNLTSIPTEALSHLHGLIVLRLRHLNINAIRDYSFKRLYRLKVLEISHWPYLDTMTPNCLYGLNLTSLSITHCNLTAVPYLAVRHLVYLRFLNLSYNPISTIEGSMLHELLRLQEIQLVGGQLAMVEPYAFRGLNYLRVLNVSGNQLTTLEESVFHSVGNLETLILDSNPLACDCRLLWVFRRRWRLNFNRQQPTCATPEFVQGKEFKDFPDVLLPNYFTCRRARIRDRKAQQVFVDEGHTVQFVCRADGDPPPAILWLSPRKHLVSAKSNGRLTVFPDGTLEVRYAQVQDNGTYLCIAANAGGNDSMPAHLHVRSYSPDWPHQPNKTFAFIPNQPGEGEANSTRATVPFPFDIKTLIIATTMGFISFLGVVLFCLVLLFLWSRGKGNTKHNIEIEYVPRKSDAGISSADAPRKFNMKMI
In words: apparent KD, FACS saturation binding on CHO-K1-cmLINGO-1 cells, IgG4 format. As to the method:
(§1) Cell based affinity of anti-LINGO-1 specific antibodies is determined by FACS saturation binding experiments. The determination of the apparent KD values is carried out identical to the procedure described above using anti-LINGO-1 Fab antibodies.
(§2) In detail, CHO-K1-hLINGO-1, CHO-K1-cmLINGO-1 or CHO-K1-rLINGO-1 are detached from culture flasks by versene, washed with FACS buffer and resuspended in FACS buffer. Purified anti-LINGO-1 IgG4s are serially diluted in FACS buffer and spread into round bottom 96-well microtiter plates (NUNC™, Wiesbaden, Germany). For each concentration, duplicate wells are incubated with 1.25×10⁴ cells for 30-60 min on ice in a total volume of 100 μl. […] Using this assay the following apparent KD values can be determined (Table 3).

In experiment [7] the target is T2, human LINGO-2 expressed on CHO-K1 cells (CHO-K1-hLINGO-2) (human, UniProt Q7L985 26-606).
T2 construct: range 26-606; not shown: 2 amino acid residue linker
T2 sequence (looked up): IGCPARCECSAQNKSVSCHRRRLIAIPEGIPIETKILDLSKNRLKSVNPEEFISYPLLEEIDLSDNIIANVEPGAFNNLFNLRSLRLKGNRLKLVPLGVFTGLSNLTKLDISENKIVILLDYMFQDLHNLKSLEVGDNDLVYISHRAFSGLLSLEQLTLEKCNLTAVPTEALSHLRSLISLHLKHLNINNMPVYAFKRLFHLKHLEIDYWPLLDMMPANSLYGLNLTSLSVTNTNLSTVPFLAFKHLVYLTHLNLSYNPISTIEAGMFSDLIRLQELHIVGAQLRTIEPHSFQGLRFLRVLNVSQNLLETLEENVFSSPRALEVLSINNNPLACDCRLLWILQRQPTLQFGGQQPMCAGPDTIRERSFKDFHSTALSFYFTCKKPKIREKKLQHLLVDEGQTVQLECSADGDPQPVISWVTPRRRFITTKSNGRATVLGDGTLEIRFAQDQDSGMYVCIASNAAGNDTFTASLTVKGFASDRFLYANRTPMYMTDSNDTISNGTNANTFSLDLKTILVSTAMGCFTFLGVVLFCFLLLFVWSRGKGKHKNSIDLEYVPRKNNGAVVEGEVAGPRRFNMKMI
In words: apparent KD, FACS saturation binding on CHO-K1-hLINGO-2 cells, IgG4 format.

For experiment [8], the target named is T3, rat LINGO-1 expressed on CHO-K1 cells (CHO-K1-rLINGO-1) (rat, UniProt A0A8I5ZPI2 34-614).
T3 construct: range 34-614; not shown: 2 amino acid residue linker
T3 sequence: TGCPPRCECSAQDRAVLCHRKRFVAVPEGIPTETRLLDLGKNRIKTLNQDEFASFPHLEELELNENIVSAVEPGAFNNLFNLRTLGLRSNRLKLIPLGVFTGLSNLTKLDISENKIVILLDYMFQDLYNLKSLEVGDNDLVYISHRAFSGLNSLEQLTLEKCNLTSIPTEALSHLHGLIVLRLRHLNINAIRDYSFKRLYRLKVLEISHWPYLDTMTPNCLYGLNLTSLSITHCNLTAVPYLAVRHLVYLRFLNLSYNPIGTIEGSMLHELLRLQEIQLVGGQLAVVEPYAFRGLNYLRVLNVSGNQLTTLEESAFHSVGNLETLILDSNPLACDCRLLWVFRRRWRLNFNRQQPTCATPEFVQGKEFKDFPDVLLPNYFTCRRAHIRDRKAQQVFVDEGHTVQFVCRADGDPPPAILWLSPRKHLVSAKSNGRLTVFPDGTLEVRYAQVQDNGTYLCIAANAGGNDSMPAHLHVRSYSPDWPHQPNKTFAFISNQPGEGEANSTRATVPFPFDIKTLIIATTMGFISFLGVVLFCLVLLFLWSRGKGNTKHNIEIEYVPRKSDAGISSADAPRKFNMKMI
In words: apparent KD, FACS saturation binding on CHO-K1-rLINGO-1 cells, IgG4 format. As to the method:
as §1, §2

Experiment [9] deals with human LINGO-1 expressed on CHO-K1 cells (CHO-K1-hLINGO-1) (human) (UniProt Q96FE5). In words: apparent KD, FACS saturation binding on CHO-K1-hLINGO-1 cells, IgG4 pre-incubated in FACS buffer + 2.6% BSA.
Experiment [10] shares this target. Nature of the experiment: apparent KD, FACS saturation binding on CHO-K1-hLINGO-1 cells, IgG4, with 50% human cerebro-spinal fluid.
Experiment [11] shares this target. Nature of the experiment: apparent KD, FACS saturation binding on CHO-K1-hLINGO-1 cells, IgG4 pre-incubated in FACS buffer + 50% human serum.

B1: anti-LINGO-1 IgG4 antibody 4784 (antibody, V domains shown)
VH: QVQLKESGPALVKPTQTLTLTCTFSGFSLSSSGVGVGWIRQPPGKALEWLAHIGSDDDKYYSTSLKTRLTISKDTSKNQVVLTMTNMDPVDTATYYCARNQQYGDGYPGYFDYWGQGTLVTVSS
VL: DIELTQPPSVSVAPGQTARISCSGDNIGNYYVYWYQQKPGQAPVLVIYEDTNRPSGIPERFSGSNSGNTATLTISGTQAEDEADYYCQSYDNLHEQVFGGGTKLTVLG
As to B1, the reduction in affinity in experiment [1] is 73%. Moreover, the Kd in experiment [2] amounted to 0.28 nM; in experiment [3] it was 0.43 nM; in experiment [5] it was 0.29 nM; in experiment [6], 0.62 nM; in experiment [7], 25.9 nM; in [8], 0.98 nM. Further, the Kd in experiment [9] is 0.19 nM; in [10] it was 1.57 nM; in [11] it was 0.27 nM. For the same molecule, the App. KD ratio w/o CSF:w/ CSF in [4] was 0.27.
